US20220372155A1 (LYVGEN BIOPHARMA, published 2022)
One block for each binder: values may come before it.

Biological target: T1, human CD40 expressed on CHO cells (human, UniProt P25942 21-277)
T1 construct: whole, on cells; also used for the reporter cells over-expressing human CD40; also called cellular CD40; CHO-CD40 cells
Experiment: FACS, CHO cells

T1 sequence (P25942 21-277): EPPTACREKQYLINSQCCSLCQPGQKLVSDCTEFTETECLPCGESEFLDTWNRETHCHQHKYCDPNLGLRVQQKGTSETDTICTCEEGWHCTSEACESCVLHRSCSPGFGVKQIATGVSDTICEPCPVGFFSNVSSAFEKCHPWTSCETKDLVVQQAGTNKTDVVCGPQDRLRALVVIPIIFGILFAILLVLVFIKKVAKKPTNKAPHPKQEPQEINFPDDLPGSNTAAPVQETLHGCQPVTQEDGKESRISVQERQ

binding result: binds
B1: Ly415 (bispecific antibody, human IgG1, kappa)
heavy: EVQLVESGGGLVQPGGSLRLSCAASGFNIKDTYMHWVRQAPGKGLEWVARIDPANGNSKYADSVKGRFTISADTSKNTAYLQMNSLRAEDTAVYYCAPFGYYVSDYAMAYWGQGTLVTVSSASTKGPSVFPLAPSSKSTSGGTAALGCLVKDYFPEPVTVSWNSGALTSGVHTFPAVLQSSGLYSLSSVVTVPSSSLGTQTYICNVNHKPSNTKVDKKVEPKSCDKTHTCPPCPAPELLGPSVFLFPPKPKDTLMISRTPEVTCVVVDVSHEDPEVKFNWYVDGVEVHNAKTKPREEQYNSTYRVVSVLTVLHQDWLNGKEYKCKVSNKALPAPIEKTISKAKGQPREPQVYTLPPSREEMTKNQVSLTCLVKGFYPSDIAVEWESNGQPENNYKTTPPVLDSDGSFFLYSKLTVDKSRWQQGNVFSCSVMHEALHNHYTQKSLSLSPGK
light: DIQLTQSPSSLSASVGDRVTITCRAGESVDIFGVGFLHWYQQKPGKAPKLLIYRASNLESGVPSRFSGSGSRTDFTLTISSLQPEDFATYYCQQTNEDPYTFGQGTKVEIKRTVAAPSVFIFPPSDEQLKSGTASVVCLLNNFYPREAKVQWKVDNALQSGNSQESVTEQDSKDSTYSLSSTLTLSKADYEKHKVYACEVTHQGLSSPVTKSFNRGECGGGGSGGGGSGGGGSGGGGSDIQMTQSPSSLSASVGDRVTITCLASEDISNDLAWYQQKPGKAPKLLIYFVDRLLDGVPSRFSGSGSGTDFTLTISSLQPEDFATYYCQQSYKYPPTFGQGTKLEIKGGGGSGGGGSGGGGSGGGGSEVQLVESGGGLVQPGGSLRLSCAASGFTFTNYGLHWVRQAPGKGLEWVSSISPSGGVTYYRDSVKGRFTISRDNSKNTLYLQMNSLRAEDTAVYYCAKPFLGWGGANWIAHWGQGTLVTVSS
notes: Ly312 HC (IgG1 mutated Fc) + Ly312 LC-TM559 scFv VL-VH

binding result: binds
B2: Ly416 (bispecific antibody, human IgG1, kappa)
heavy: B1 heavy
light: DIQLTQSPSSLSASVGDRVTITCRAGESVDIFGVGFLHWYQQKPGKAPKLLIYRASNLESGVPSRFSGSGSRTDFTLTISSLQPEDFATYYCQQTNEDPYTFGQGTKVEIKRTVAAPSVFIFPPSDEQLKSGTASVVCLLNNFYPREAKVQWKVDNALQSGNSQESVTEQDSKDSTYSLSSTLTLSKADYEKHKVYACEVTHQGLSSPVTKSFNRGECGGGGSGGGGSGGGGSGGGGSEVQLVESGGGLVQPGGSLRLSCAASGFTFTNYGLHWVRQAPGKGLEWVSSISPSGGVTYYRDSVKGRFTISRDNSKNTLYLQMNSLRAEDTAVYYCAKPFLGWGGANWIAHWGQGTLVTVSSGGGGSGGGGSGGGGSGGGGSDIQMTQSPSSLSASVGDRVTITCLASEDISNDLAWYQQKPGKAPKLLIYFVDRLLDGVPSRFSGSGSGTDFTLTISSLQPEDFATYYCQQSYKYPPTFGQGTKLEIK
notes: Ly312 HC (IgG1 mutated Fc) + Ly312 LC-TM559 scFv VH-VL

binding result: binds
B3: Ly423 (bispecific antibody, human IgG1, kappa)
heavy: B1 heavy
light: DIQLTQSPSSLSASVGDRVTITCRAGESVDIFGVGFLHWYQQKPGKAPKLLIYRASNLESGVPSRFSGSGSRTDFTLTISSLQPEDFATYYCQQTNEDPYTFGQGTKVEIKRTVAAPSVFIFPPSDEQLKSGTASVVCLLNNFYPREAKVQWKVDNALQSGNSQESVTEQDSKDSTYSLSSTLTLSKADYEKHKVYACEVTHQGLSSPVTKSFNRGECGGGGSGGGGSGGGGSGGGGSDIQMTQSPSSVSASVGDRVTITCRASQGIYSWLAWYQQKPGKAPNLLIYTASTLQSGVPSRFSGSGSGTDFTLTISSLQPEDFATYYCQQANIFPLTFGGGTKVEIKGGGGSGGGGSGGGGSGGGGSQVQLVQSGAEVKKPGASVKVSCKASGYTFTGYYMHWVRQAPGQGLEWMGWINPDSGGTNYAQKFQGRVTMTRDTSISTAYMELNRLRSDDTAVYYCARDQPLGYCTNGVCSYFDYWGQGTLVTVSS
notes: Ly312 HC (IgG1 mutated Fc) + Ly312 LC-Ly253 scFv VL-VH

binding result: binds
B4: Ly424 (bispecific antibody, human IgG1, kappa)
heavy: B1 heavy
light: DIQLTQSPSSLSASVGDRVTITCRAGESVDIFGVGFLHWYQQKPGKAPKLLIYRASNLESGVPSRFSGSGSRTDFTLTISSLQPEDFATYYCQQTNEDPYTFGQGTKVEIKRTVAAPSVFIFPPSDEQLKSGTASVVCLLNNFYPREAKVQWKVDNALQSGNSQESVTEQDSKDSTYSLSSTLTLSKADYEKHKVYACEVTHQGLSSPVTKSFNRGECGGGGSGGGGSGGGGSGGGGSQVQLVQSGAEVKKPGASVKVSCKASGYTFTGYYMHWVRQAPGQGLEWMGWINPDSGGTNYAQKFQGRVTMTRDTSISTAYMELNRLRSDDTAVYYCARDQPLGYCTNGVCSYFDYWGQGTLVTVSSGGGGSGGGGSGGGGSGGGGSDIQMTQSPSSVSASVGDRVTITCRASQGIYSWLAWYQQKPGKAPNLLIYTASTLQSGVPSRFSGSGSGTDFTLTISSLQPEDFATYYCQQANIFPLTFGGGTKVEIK
notes: Ly312 HC (IgG1 mutated Fc) + Ly312 LC-Ly253 scFv VH-VL

binding result: binds
B5: Ly419 (bispecific antibody, human IgG1, kappa)
heavy: EVQLVESGGGVVQPGRSLRLSCSASGFDFTTYWMSWVRQAPGKGLEWIGEIHPDSSTINYAPSLKDRFTISRDNAKNTLFLQMDSLRPEDTGVYFCASLYFGFPWFAYWGQGTPVTVSSASTKGPSVFPLAPSSKSTSGGTAALGCLVKDYFPEPVTVSWNSGALTSGVHTFPAVLQSSGLYSLSSVVTVPSSSLGTQTYICNVNHKPSNTKVDKKVEPKSCDKTHTCPPCPAPELLGPSVFLFPPKPKDTLMISRTPEVTCVVVDVSHEDPEVKFNWYVDGVEVHNAKTKPREEQYNSTYRVVSVLTVLHQDWLNGKEYKCKVSNKALPAPIEKTISKAKGQPREPQVYTLPPSREEMTKNQVSLTCLVKGFYPSDIAVEWESNGQPENNYKTTPPVLDSDGSFFLYSKLTVDKSRWQQGNVFSCSVMHEALHNHYTQKSLSLSPGK
light: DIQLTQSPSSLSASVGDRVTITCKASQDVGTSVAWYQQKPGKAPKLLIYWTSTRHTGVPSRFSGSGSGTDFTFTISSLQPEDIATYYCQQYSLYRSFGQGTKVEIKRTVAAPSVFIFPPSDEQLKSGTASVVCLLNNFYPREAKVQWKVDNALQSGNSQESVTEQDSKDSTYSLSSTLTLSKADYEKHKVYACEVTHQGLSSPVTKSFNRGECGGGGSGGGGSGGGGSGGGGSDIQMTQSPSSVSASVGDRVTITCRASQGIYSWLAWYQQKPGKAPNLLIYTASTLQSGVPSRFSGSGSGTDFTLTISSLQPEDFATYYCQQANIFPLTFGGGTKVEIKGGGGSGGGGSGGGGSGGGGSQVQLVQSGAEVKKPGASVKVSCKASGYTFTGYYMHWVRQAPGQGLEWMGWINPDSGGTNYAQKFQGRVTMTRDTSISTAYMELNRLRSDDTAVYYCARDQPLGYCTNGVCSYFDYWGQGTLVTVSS
notes: Ly311 HC (IgG1 mutated Fc) + Ly311 LC-Ly253 scFv VL-VH

binding result: binds
B6: Ly420 (bispecific antibody, human IgG1, kappa)
heavy: B5 heavy
light: not shown
notes: Ly311 HC (IgG1 mutated Fc) + Ly311 LC-Ly253 scFv VH-VL

binding result: binds
B7: Ly462 (bispecific antibody, human IgG1, kappa)
heavy: QVQLKESGPGLVAPSQSLSITCTVSGFSLTDYGVRWIRQPPGKGLEWLGVIWGGGSTYYNSALKSRLSISKDNSKSQVFLKMNSLQTDDTAMYYCAKEKRRGYYYAMDYWGQGTSVTVSSASTKGPSVFPLAPSSKSTSGGTAALGCLVKDYFPEPVTVSWNSGALTSGVHTFPAVLQSSGLYSLSSVVTVPSSSLGTQTYICNVNHKPSNTKVDKKVEPKSCDKTHTCPPCPAPELLGPSVFLFPPKPKDTLMISRTPEVTCVVVDVSHEDPEVKFNWYVDGVEVHNAKTKPREEQYNSTYRVVSVLTVLHQDWLNGKEYKCKVSNKALPAPIEKTISKAKGQPREPQVYTLPPSREEMTKNQVSLTCLVKGFYPSDIAVEWESNGQPENNYKTTPPVLDSDGSFFLYSKLTVDKSRWQQGNVFSCSVMHEALHNHYTQKSLSLSPGGGGGSGGGGSGGGGSGGGGSDIQMTQSPSSLSASVGDRVTITCKASQNIYIYLNWYQQKPGKAPKLLIYNTNNLQTGVPSRFSGSGSGTDFTLTISSLQPEDFATYYCLQHSSRRTFGGGTKVEIKGGGGSGGGGSGGGGSGGGGSQVQLVESGGGLVQPGGSLKLSCATSGFNFNDYFMNWVRQASGKGLEWVGQIRNKNYNYATYYTESLEGRVTISRDDSKNTAYLQMNSLKTEDTAVYYCTSYYYDGFADYFDYWGQGTTVTVSS
light: ENVLTQSPAIMSASPGEKVTMTCRASSSVSSSYLHWYQQKSGASPKLWIYSTSNLASGVPARFSGSGSGTSYSLTISSVEAEDAATYYCQQYSGYPLTFGGGTKLEIKRTVAAPSVFIFPPSDEQLKSGTASVVCLLNNFYPREAKVQWKVDNALQSGNSQESVTEQDSKDSTYSLSSTLTLSKADYEKHKVYACEVTHQGLSSPVTKSFNRGEC
notes: Ly368 HC-TM740 scFv VL-VH + Ly368 LC

binding result: binds
B8: Ly413 (bispecific antibody, human IgG1, kappa)
heavy: EVQLVESGGGLVQPGGSLRLSCAASGFNIKDTYMHWVRQAPGKGLEWVARIDPANGNSKYADSVKGRFTISADTSKNTAYLQMNSLRAEDTAVYYCAPFGYYVSDYAMAYWGQGTLVTVSSASTKGPSVFPLAPSSKSTSGGTAALGCLVKDYFPEPVTVSWNSGALTSGVHTFPAVLQSSGLYSLSSVVTVPSSSLGTQTYICNVNHKPSNTKVDKKVEPKSCDKTHTCPPCPAPELLGPSVFLFPPKPKDTLMISRTPEVTCVVVDVSHEDPEVKFNWYVDGVEVHNAKTKPREEQYNSTYRVVSVLTVLHQDWLNGKEYKCKVSNKALPAPIEKTISKAKGQPREPQVYTLPPSREEMTKNQVSLTCLVKGFYPSDIAVEWESNGQPENNYKTTPPVLDSDGSFFLYSKLTVDKSRWQQGNVFSCSVMHEALHNHYTQKSLSLSPGGGGGSGGGGSGGGGSGGGGSDIQMTQSPSSLSASVGDRVTITCLASEDISNDLAWYQQKPGKAPKLLIYFVDRLLDGVPSRFSGSGSGTDFTLTISSLQPEDFATYYCQQSYKYPPTFGQGTKLEIKGGGGSGGGGSGGGGSGGGGSEVQLVESGGGLVQPGGSLRLSCAASGFTFTNYGLHWVRQAPGKGLEWVSSISPSGGVTYYRDSVKGRFTISRDNSKNTLYLQMNSLRAEDTAVYYCAKPFLGWGGANWIAHWGQGTLVTVSS
light: DIQLTQSPSSLSASVGDRVTITCRAGESVDIFGVGFLHWYQQKPGKAPKLLIYRASNLESGVPSRFSGSGSRTDFTLTISSLQPEDFATYYCQQTNEDPYTFGQGTKVEIKRTVAAPSVFIFPPSDEQLKSGTASVVCLLNNFYPREAKVQWKVDNALQSGNSQESVTEQDSKDSTYSLSSTLTLSKADYEKHKVYACEVTHQGLSSPVTKSFNRGEC
notes: Ly312 HC (IgG1 mutated Fc)-TM559 scFv VL-VH + Ly312 LC

binding result: binds
B9: Ly422 (bispecific antibody, human IgG1, kappa)
heavy: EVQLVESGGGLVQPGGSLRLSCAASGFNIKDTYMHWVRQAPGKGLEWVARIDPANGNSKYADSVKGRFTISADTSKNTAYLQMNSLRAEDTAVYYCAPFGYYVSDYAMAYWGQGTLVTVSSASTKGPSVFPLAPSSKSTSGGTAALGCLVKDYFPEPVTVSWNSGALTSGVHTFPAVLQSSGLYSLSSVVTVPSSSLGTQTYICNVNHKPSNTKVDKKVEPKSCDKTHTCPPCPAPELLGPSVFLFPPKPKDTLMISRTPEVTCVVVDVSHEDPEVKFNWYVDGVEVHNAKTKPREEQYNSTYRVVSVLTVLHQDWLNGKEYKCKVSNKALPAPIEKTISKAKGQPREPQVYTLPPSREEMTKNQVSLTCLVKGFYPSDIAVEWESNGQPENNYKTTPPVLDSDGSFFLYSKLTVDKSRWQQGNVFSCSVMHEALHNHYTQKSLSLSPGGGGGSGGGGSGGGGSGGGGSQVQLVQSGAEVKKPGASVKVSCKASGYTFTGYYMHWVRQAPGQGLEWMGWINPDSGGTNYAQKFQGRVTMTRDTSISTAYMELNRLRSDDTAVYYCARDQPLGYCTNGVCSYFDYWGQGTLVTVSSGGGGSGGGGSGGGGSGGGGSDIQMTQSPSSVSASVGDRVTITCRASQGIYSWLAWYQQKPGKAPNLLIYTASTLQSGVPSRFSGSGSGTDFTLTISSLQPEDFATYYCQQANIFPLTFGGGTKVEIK
light: B8 light
notes: Ly312 HC (IgG1 mutated Fc)-Ly253 scFv VH-VL + Ly312 LC

binding result: binds
B10: Ly414 (bispecific antibody, human IgG1, kappa)
heavy: EVQLVESGGGLVQPGGSLRLSCAASGFNIKDTYMHWVRQAPGKGLEWVARIDPANGNSKYADSVKGRFTISADTSKNTAYLQMNSLRAEDTAVYYCAPFGYYVSDYAMAYWGQGTLVTVSSASTKGPSVFPLAPSSKSTSGGTAALGCLVKDYFPEPVTVSWNSGALTSGVHTFPAVLQSSGLYSLSSVVTVPSSSLGTQTYICNVNHKPSNTKVDKKVEPKSCDKTHTCPPCPAPELLGPSVFLFPPKPKDTLMISRTPEVTCVVVDVSHEDPEVKFNWYVDGVEVHNAKTKPREEQYNSTYRVVSVLTVLHQDWLNGKEYKCKVSNKALPAPIEKTISKAKGQPREPQVYTLPPSREEMTKNQVSLTCLVKGFYPSDIAVEWESNGQPENNYKTTPPVLDSDGSFFLYSKLTVDKSRWQQGNVFSCSVMHEALHNHYTQKSLSLSPGGGGGSGGGGSGGGGSGGGGSEVQLVESGGGLVQPGGSLRLSCAASGFTFTNYGLHWVRQAPGKGLEWVSSISPSGGVTYYRDSVKGRFTISRDNSKNTLYLQMNSLRAEDTAVYYCAKPFLGWGGANWIAHWGQGTLVTVSSGGGGSGGGGSGGGGSGGGGSDIQMTQSPSSLSASVGDRVTITCLASEDISNDLAWYQQKPGKAPKLLIYFVDRLLDGVPSRFSGSGSGTDFTLTISSLQPEDFATYYCQQSYKYPPTFGQGTKLEIK
light: B8 light
notes: Ly312 HC (IgG1 mutated Fc)-TM559 scFv VH-VL + Ly312 LC

binding result: binds
B11: Ly421 (bispecific antibody, human IgG1, kappa)
heavy: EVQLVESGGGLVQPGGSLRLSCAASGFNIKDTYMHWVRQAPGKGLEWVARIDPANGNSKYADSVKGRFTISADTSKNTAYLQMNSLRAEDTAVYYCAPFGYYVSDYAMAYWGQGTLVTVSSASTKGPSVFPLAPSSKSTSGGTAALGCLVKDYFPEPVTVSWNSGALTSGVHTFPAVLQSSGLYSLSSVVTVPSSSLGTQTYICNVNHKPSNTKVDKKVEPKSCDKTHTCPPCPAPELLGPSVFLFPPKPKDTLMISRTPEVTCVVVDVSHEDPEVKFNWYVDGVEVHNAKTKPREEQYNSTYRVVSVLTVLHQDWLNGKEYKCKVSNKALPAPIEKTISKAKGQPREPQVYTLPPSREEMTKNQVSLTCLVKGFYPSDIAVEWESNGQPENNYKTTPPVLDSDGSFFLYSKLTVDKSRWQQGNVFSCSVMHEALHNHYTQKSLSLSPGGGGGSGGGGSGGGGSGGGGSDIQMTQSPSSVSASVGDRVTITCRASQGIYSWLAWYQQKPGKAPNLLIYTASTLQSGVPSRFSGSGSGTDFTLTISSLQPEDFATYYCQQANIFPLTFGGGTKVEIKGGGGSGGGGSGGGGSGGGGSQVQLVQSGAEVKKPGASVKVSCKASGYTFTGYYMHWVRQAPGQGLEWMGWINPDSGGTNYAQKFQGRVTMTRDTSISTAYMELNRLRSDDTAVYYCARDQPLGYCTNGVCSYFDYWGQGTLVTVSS
light: B8 light
notes: Ly312 HC (IgG1 mutated Fc)-Ly253 scFv VL-VH + Ly312 LC

binding result: binds
B12: Ly417 (bispecific antibody, human IgG1, kappa)
heavy: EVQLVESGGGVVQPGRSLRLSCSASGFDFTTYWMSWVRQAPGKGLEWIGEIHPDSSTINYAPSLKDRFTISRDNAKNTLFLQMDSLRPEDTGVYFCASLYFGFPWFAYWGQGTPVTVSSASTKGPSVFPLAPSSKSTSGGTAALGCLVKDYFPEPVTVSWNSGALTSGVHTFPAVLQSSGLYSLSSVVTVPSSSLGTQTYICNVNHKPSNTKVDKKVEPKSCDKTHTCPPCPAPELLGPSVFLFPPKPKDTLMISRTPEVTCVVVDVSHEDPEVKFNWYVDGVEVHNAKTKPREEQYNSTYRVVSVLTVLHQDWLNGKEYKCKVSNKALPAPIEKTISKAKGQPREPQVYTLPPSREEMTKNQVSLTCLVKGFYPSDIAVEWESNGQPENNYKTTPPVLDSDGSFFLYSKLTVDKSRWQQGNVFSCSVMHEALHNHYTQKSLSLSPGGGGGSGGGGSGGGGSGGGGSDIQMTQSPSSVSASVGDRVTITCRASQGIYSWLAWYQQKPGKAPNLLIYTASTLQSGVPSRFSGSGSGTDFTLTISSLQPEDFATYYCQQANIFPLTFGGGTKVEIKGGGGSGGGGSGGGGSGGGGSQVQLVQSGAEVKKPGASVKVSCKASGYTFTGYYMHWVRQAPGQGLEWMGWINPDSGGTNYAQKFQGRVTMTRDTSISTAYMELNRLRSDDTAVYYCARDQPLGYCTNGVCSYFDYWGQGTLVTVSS
light: DIQLTQSPSSLSASVGDRVTITCKASQDVGTSVAWYQQKPGKAPKLLIYWTSTRHTGVPSRFSGSGSGTDFTFTISSLQPEDIATYYCQQYSLYRSFGQGTKVEIKRTVAAPSVFIFPPSDEQLKSGTASVVCLLNNFYPREAKVQWKVDNALQSGNSQESVTEQDSKDSTYSLSSTLTLSKADYEKHKVYACEVTHQGLSSPVTKSFNRGEC
notes: Ly311 HC (IgG1 mutated Fc)-Ly253 scFv VL-VH + Ly311 LC

binding result: binds
B13: Ly418 (bispecific antibody, human IgG1, kappa)
heavy: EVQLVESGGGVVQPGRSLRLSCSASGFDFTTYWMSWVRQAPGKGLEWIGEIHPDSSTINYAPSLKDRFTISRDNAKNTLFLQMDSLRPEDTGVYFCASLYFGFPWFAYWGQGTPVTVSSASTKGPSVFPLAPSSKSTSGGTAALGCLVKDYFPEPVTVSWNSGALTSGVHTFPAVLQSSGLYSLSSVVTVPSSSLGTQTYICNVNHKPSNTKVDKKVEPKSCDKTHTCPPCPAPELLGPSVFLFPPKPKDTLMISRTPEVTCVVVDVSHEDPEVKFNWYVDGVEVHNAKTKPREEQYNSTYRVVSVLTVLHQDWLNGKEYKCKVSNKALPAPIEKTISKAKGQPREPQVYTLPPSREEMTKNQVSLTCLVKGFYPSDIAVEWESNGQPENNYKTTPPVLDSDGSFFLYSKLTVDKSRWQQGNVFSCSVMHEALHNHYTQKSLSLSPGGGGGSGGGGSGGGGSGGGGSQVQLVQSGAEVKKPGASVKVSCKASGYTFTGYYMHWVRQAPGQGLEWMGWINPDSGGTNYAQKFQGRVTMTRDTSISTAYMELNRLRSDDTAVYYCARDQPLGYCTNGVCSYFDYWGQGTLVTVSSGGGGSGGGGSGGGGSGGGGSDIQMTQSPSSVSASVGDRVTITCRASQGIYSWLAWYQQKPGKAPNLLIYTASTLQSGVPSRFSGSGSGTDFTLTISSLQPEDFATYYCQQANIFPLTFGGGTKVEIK
light: B12 light
notes: Ly311 HC (IgG1 mutated Fc)-Ly253 scFv VH-VL + Ly311 LC
